Measurements taken from publication PMC4291483 (The EMBO Journal, 2014).

Target: T1, purified STIL[N] (aa1-1018) (human, UniProt Q15468 1-1018)
T1 sequence (looked up): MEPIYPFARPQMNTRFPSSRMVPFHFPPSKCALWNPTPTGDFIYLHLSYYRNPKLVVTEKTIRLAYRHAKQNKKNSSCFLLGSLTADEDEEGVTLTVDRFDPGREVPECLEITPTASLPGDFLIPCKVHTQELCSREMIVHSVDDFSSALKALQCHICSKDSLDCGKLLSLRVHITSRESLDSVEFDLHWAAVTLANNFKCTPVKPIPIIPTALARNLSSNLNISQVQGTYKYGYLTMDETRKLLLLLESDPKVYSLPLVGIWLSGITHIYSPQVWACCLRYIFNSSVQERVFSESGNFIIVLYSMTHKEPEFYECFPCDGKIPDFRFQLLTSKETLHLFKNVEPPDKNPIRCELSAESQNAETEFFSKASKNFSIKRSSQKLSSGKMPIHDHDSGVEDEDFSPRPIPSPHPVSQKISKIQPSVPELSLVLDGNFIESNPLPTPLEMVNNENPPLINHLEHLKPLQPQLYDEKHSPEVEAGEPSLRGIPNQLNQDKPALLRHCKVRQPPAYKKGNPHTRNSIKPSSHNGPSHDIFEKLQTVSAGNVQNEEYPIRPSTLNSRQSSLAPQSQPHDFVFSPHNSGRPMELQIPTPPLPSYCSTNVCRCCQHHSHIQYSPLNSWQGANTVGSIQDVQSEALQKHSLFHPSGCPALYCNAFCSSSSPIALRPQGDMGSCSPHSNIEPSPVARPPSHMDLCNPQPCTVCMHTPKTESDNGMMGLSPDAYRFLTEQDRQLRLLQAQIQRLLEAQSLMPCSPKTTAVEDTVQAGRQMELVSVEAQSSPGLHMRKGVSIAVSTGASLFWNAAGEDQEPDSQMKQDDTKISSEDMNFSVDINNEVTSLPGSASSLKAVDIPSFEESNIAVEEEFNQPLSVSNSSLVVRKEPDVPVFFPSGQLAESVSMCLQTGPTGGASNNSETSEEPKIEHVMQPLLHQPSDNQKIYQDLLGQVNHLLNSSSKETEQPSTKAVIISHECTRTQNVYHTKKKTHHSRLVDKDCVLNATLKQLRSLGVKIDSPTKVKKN
Assay: pull-down; GST-RBM14 fragments retained on Glutathione sepharose beads, incubated with ~5 μg bacterially purified STIL[N] for 2 h at 4°C in lysis buffer; SDS-PAGE, SimplyBlue Safe stain
Details: both partners purified

- binding result: binds
B1: GST-RBM14[C] (domain or fragment, human, UniProt Q96PK6 151-669, looked up)
chain: QKKGPGLAVQSGDKTKKPGAGDTAFPGTGGFSATFDYQQAFGNSTGGFDGQARQPTPPFFGRDRSPLRRSPPRASYVAPLTAQPATYRAQPSVSLGAAYRAQPSASLGVGYRTQPMTAQAASYRAQPSVSLGAPYRGQLASPSSQSAAASSLGPYGGAQPSASALSSYGGQAAAASSLNSYGAQGSSLASYGNQPSSYGAQAASSYGVRAAASSYNTQGAASSLGSYGAQAASYGAQSAASSLAYGAQAASYNAQPSASYNAQSAPYAAQQAASYSSQPAAYVAQPATAAAYASQPAAYAAQATTPMAGSYGAQPVVQTQLNSYGAQASMGLSGSYGAQSAAAATGSYGAAAAYGAQPSATLAAPYRTQSSASLAASYAAQQHPQAAASYRGQPGNAYDGAGQPSAAYLSMSQGAVANANSTPPPYERTRLSPPRASYDDPYKKAVAMSKRYGSDRRLAELSDYRRLSESQLSFRRSPTKSSLDYRRLPDAHSDYARYSGSYNDYLRAAQMHSGYQRRM
